Laboratory results as given in patent publication US20220017615A1 (SHANGHAI PHARMAEXPLORER, published 2022).

Legend:
[1] = molecular target: T1, human CD47, full length, on transfected cells (human, UniProt Q08722 19-323); experiment: FACS CHOK1-hCD47; Ab 8 nM
T1 construct: whole, on cells; also called CHOK1-hCD47
Procedure: (§1) The CHOK1-hCD47 stable cell lines and CHOK1-cCD47 stable cell lines were expanded to 90% confluence in a T-75 cell culture flask, the medium was exhausted, washed twice with HBSS buffer (Hanks balanced salt solution) (purchased from Invitrogen), and then treated and collected with enzyme-free cell dissociation solution (Versene solution: purchased from Life technology). The cells were washed twice with HBSS buffer. After counted, the cells were diluted with HBSS to 2×10⁶ cells per ml, added with 1% goat serum blocking solution, wherein the percentage was the mass percantage, incubated on ice for 30 minutes, and then washed twice with HBSS by centrifugation. […] The plate was washed 3 times with FACS buffer by centrifugation, added with 100 μl fixative solution [4% (v/v) Paraformaldehyde] per well to suspend the cells. 10 minutes later, it was washed twice with FACS buffer by centrifugation. The cells were suspended with 100 microliters of FACS buffer, FACS (FACS Calibur, purchased from BD) was used for detection and the results were analyzed.

[2] = molecular target: T2, cynomolgus CD47, on CHOK1-cCD47 stable cell line (cynomolgus); experiment: FACS CHOK1-cCD47; Ab 8 nM
T2 construct: whole, on cells; check before use; also called CHOK1/cynoCD47; monkey-derived CD47
Procedure: as §1

[3] = molecular target: T1, human CD47, full length, on transfected …; experiment: FACS CHOK1-hCD47; Ab 40 nM
Procedure: as §1

[4] = molecular target: T2, cynomolgus CD47, on CHOK1-cCD47 stable …; experiment: FACS CHOK1-cCD47; Ab 40 nM
Procedure: as §1

[5] = molecular target: T1, human CD47, full length, on transfected …; experiment: FACS CHOK1-hCD47; Ab 1.6 nM
Procedure: as §1

[6] = molecular target: T1, human CD47, full length, on transfected …; experiment: FACS CHOK1-hCD47; Ab 200 nM
Procedure: as §1

[7] = molecular target: T2, cynomolgus CD47, on CHOK1-cCD47 stable …; experiment: FACS CHOK1-cCD47; Ab 1.6 nM
Procedure: as §1

[8] = molecular target: T2, cynomolgus CD47, on CHOK1-cCD47 stable …; experiment: FACS CHOK1-cCD47; Ab 200 nM
Procedure: as §1

[9] = molecular target: T1, human CD47, full length, on transfected …; experiment: FACS CHOK1-hCD47; Ab 0.32 nM
Procedure: as §1

[10] = molecular target: T2, cynomolgus CD47, on CHOK1-cCD47 stable …; experiment: FACS CHOK1-cCD47; Ab 0.32 nM
Procedure: as §1

[11] = molecular target: T1, human CD47, full length, on transfected …; experiment: FACS CHOK1-hCD47; Ab 0.064 nM
Procedure: as §1

[12] = molecular target: T2, cynomolgus CD47, on CHOK1-cCD47 stable …; experiment: FACS CHOK1-cCD47; Ab 0.064 nM
Procedure: as §1

[13] = molecular target: T1, human CD47, full length, on transfected …; experiment: FACS CHOK1-hCD47; Ab 0.0128 nM
Procedure: as §1

[14] = molecular target: T2, cynomolgus CD47, on CHOK1-cCD47 stable …; experiment: FACS CHOK1-cCD47; Ab 0.0128 nM
Procedure: as §1

[15] = molecular target: T3, His-tagged CD47 recombinant protein, CD47-His (human, UniProt Q08722 19-141, limits assumed); experiment: ELISA on coated CD47-His; Ab 0.004 nM
T3 construct: it is not restated for CD47-His; also called human CD47-His protein; antigen CD47-His; not shown: His tag

[16] = molecular target: T3, His-tagged CD47 recombinant protein, …; experiment: ELISA on coated CD47-His; Ab 0.021 nM
Procedure: (§2) The plate was sealed with plastic film and incubated at 4° C. overnight. The plate was washed twice with plate washing solution [PBS+0.01% (v/v) Tween20] the next day, and blocking solution [PBS+0.01% (v/v) Tween20 +1% (w/w) BSA] was added to block it at room temperature for 2 hours. […] After incubation at 37° C. for 2 hours, the plates were washed three times with plate washing solution [PBS+0.01% (v/v) Tween 20]. HRP (horseradish peroxidase) labeled secondary antibody (purchased from Sigma) was added, incubated at 37° C. for 2 hours, and then washed three times with plate washing solution [PBS+0.01% (v/v) Tween 20]. 1000 of TMB substrate was added to each well. After incubated at room temperature for 30 minutes, the plate was added with 100 μl of stop solution (1.0N HCl) to each well.

[17] = molecular target: T3, His-tagged CD47 recombinant protein, …; experiment: ELISA on coated CD47-His; Ab 0.107 nM
Procedure: as §2

[18] = molecular target: T3, His-tagged CD47 recombinant protein, …; experiment: ELISA on coated CD47-His; Ab 0.533 nM
Procedure: as §2

[19] = molecular target: T3, His-tagged CD47 recombinant protein, …; experiment: ELISA on coated CD47-His; Ab 2.667 nM
Procedure: as §2

[20] = molecular target: T3, His-tagged CD47 recombinant protein, …; experiment: ELISA on coated CD47-His; Ab 13.333 nM
Procedure: as §2

[21] = molecular target: T3, His-tagged CD47 recombinant protein, …; experiment: ELISA on coated CD47-His; Ab 66.667 nM
Procedure: as §2

[22] = molecular target: T1, human CD47, full length, on transfected …; experiment: FACS CHOK1-hCD47; Ab 0 nM (background)
Procedure: as §1

[23] = molecular target: T2, cynomolgus CD47, on CHOK1-cCD47 stable …; experiment: FACS CHOK1-cCD47; Ab 0 nM (background)
Procedure: as §1

[24] = molecular target: T3, His-tagged CD47 recombinant protein, …; experiment: ELISA on coated CD47-His; Ab 0 nM (background)
Procedure: as §2

[25] = molecular target: T4, biotin-labeled CD47 extracellular domain protein (CD47-ECD) (UniProt Q08722 19-139, limits assumed, biotin-labeled (sites not given)); experiment: blocking ELISA, biotin-CD47-ECD on coated SIRPα-hFc; Ab 0 nM
T4 construct: extracellular domain; also called CD47 protein

[26] = molecular target: T4, biotin-labeled CD47 extracellular …; experiment: blocking ELISA, biotin-CD47-ECD on coated SIRPα-hFc; Ab 8 nM
Procedure: (§3) The plate was sealed with plastic film and incubated at 4° C. overnight. The plate was washed twice with plate washing solution [PBS+0.01% (v/v) Tween20] on the next day, and blocking solution [PBS+0.01% (v/v) Tween20 +1% (w/w) BSA] was added to block it at room temperature for 2 hours. […] After incubation at 37° C. for 2 hours, the plate was washed three times with the plate washing solution [PBS+0.01% (v/v) Tween 20]. HRP (horseradish peroxidase) labeled avidin diluent (purchased from Sigma) was added as 100 microliters per well, and after the plate was incubated for 2 hours at 37° C., it was washed 3 times with washing solution [PBS+0.01% (v/v) Tween 20]. 100 μl of TMB substrate was added to each well. After incubated at room temperature for 30 minutes, the plate was added with 100 μl of stop solution (1.0N HCl) to each well.

[27] = molecular target: T4, biotin-labeled CD47 extracellular …; experiment: blocking ELISA, biotin-CD47-ECD on coated SIRPα-hFc; Ab 40 nM
Procedure: as §3

[28] = molecular target: T4, biotin-labeled CD47 extracellular …; experiment: blocking ELISA, biotin-CD47-ECD on coated SIRPα-hFc; Ab 1.6 nM
Procedure: as §3

[29] = molecular target: T4, biotin-labeled CD47 extracellular …; experiment: blocking ELISA, biotin-CD47-ECD on coated SIRPα-hFc; Ab 200 nM
Procedure: as §3

[30] = molecular target: T4, biotin-labeled CD47 extracellular …; experiment: blocking ELISA, biotin-CD47-ECD on coated SIRPα-hFc; Ab 0.32 nM
Procedure: as §3

[31] = molecular target: T4, biotin-labeled CD47 extracellular …; experiment: blocking ELISA, biotin-CD47-ECD on coated SIRPα-hFc; Ab 0.064 nM
Procedure: as §3

[32] = molecular target: T4, biotin-labeled CD47 extracellular …; experiment: blocking ELISA, biotin-CD47-ECD on coated SIRPα-hFc; Ab 0.0128 nM
Procedure: as §3

| Binder | mean fluorescence intensity [1] | mean fluorescence intensity [2] | mean fluorescence intensity [3] | mean fluorescence intensity [4] | mean fluorescence intensity [5] | mean fluorescence intensity [6] | mean fluorescence intensity [7] | mean fluorescence intensity [8] | mean fluorescence intensity [9] | mean fluorescence intensity [10] | mean fluorescence intensity [11] | mean fluorescence intensity [12] | mean fluorescence intensity [13] | mean fluorescence intensity [14] | OD450 nm [15] | OD450 nm [16] | OD450 nm [17] | OD450 nm [18] | OD450 nm [19] | OD450 nm [20] | also measured |
| --- | --- | --- | --- | --- | --- | --- | --- | --- | --- | --- | --- | --- | --- | --- | --- | --- | --- | --- | --- | --- | --- |
| 25E3B5 (antibody, V domains shown, Murine hybridoma antibody purified on protein G) VH: QVQLQQPGTALVRPGSSVKLSCKASGYTFTSYWMHWVRQRPIKGLEWIGNIDPSDSETHYNQRFKDKVTLTVDKSSNTAYMQLSSLTSEDSAVYYCARWKYHGIGAMDYWGQGTSVTVSS VL: DVQITQSPSYLAASPGETVTISCRTNRNISKFLAWYQEKPGKTNKLLIYSGSTLHSGIPSRFSGSGSGTDFTLTISRLEPEDFAMYYCQQHNEYPWSFGGGTKLEIK | 7020 | 13200 | 9790 | 9760 | 4430 | 9420 | 7400 | 7040 | 1560 | 4550 | 386 | 1450 | 120 | 422 | 0.14 | 0.46 | 1.68 | 2.91 | 3.02 | 2.96 | OD450 nm [21]: 2.89; mean fluorescence intensity [22]: 22.9; mean fluorescence intensity [23]: 83.5; OD450 nm [24]: 0.05; OD450 nm of CD47 bound to SIRPα [25]: 2.91; OD450 nm of CD47 bound to SIRPα [26]: 0.07; OD450 nm of CD47 bound to SIRPα [27]: 0.06; OD450 nm of CD47 bound to SIRPα [28]: 0.18; OD450 nm of CD47 bound to SIRPα [29]: 0.06; OD450 nm of CD47 bound to SIRPα [30]: 1.06; OD450 nm of CD47 bound to SIRPα [31]: 2.5; OD450 nm of CD47 bound to SIRPα [32]: 2.79 |
| 20H4G5 (antibody, V domains shown, Murine hybridoma antibody purified on protein G) VH: QVQLQQPGAELVRPGSSVRLSCVTSGYTFTSHWMHWVKQGPIKGLEWIGNIDPSDSETHYNQKFKDKATLTVDKSSSTAYMQLSRLTSDDSAVYYCARWRHLGIGAMDYWGQGTSVIVSS VL: DVQITQSPSYLAASPGETITINCRASKNISKFLAWYQAKPGKSNNLLIYSGSTLQSGIPSRFSGSGSGTDFTLTISRLEPEDFAMYYCQQHNEYPWTFGGGTKLEIK | 8470 | 16400 | 9520 | 13400 | 6160 | 6550 | 9450 | 16500 | 2980 | 3310 | 759 | 998 | 233 | 343 | 0.31 | 1.15 | 2.61 | 3.02 | 3.01 | 2.94 | OD450 nm [21]: 2.9; mean fluorescence intensity [22]: 23.1; mean fluorescence intensity [23]: 81.2; OD450 nm [24]: 0.05; OD450 nm of CD47 bound to SIRPα [25]: 2.9; OD450 nm of CD47 bound to SIRPα [26]: 0.08; OD450 nm of CD47 bound to SIRPα [27]: 0.07; OD450 nm of CD47 bound to SIRPα [28]: 0.16; OD450 nm of CD47 bound to SIRPα [29]: 0.07; OD450 nm of CD47 bound to SIRPα [30]: 0.68; OD450 nm of CD47 bound to SIRPα [31]: 2.29; OD450 nm of CD47 bound to SIRPα [32]: 2.81 |
| 51E2F11 (antibody, V domains shown, Murine hybridoma antibody purified on protein G) VH: EVQLQQSGAELVKPGASVKLSCTASGFNIKDHYIHWMNQRTEQGLEWIGRIDPDDGETRYAPKFRGKATLTADTSSNTAYLQFSSLTSEDTAVYHCTRATTITRDWYFDVWGTGTTVTVSS VL: DIVMTQSQKFMSTSVGDRVSITCKASQNVRTSVAWYQQKPGQSPKALIYLASNRHTGIPDRFTGSGSGTDFTLTIRNVQSEDLADYFCLQHWDYPLTFGAGTKLELK | 12700 | 10600 | 15900 | 13300 | 6460 | 14600 | 7190 | 9460 | 2000 | 2880 | 541 | 288 | 174 | 245 | 0.16 | 0.53 | 1.83 | 2.95 | 3 | 2.97 | OD450 nm [21]: 2.95; mean fluorescence intensity [22]: 22.6; mean fluorescence intensity [23]: 72.4; OD450 nm [24]: 0.05; OD450 nm of CD47 bound to SIRPα [25]: 2.95; OD450 nm of CD47 bound to SIRPα [26]: 0.1; OD450 nm of CD47 bound to SIRPα [27]: 0.08; OD450 nm of CD47 bound to SIRPα [28]: 0.32; OD450 nm of CD47 bound to SIRPα [29]: 0.07; OD450 nm of CD47 bound to SIRPα [30]: 1.57; OD450 nm of CD47 bound to SIRPα [31]: 2.77; OD450 nm of CD47 bound to SIRPα [32]: 2.94 |
